Assay results: publication PMC5510646 (The Biochemical journal, 2017)
Substitutions are numbered along the chain they refer to. Names may count otherwise.

T1: Grem2 K147A/K148A/K151A/K153A (UniProt O88273 22-168, K147A | K148A | K151A | K153A)
T1 sequence: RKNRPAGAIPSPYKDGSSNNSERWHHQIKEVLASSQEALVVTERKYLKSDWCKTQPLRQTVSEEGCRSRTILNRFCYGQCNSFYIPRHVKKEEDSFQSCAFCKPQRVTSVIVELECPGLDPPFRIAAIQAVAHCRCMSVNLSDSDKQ

T2: Grem2 K66A/K69A/K147A/K148A (UniProt O88273 22-168, K66A | K69A | K147A | K148A)
T2 sequence: T1 sequence with K45A, K48A, A130K, A132K

T3: Grem2 K111A/K112A/K151A/K153A (UniProt O88273 22-168, K111A | K112A | K151A | K153A)
T3 sequence: T1 sequence with K90A, K91A, A126K, A127K

T4: Gremlin-2 wild type (UniProt O88273 22-168)
T4 sequence: T1 sequence with A126K, A127K, A130K, A132K

B1: Grem2 K66A/K69A (natural protein)
chain: T1 sequence with K45A, K48A, A126K, A127K, A130K, A132K
B2: Grem2 K147A/K148A (natural protein)
chain: T1 sequence with A130K, A132K
B3: Grem2 K111A/K112A (natural protein)
chain: T1 sequence with K90A, K91A, A126K, A127K, A130K, A132K
B4: Recombinant mature BMP2 (ligand, UniProt P12643 283-396, looked up)
chain: QAKHKQRKRLKSSCKRHPLYVDFSDVGWNDWIVAPPGYHAFYCHGECPFPLADHLNSTNHAIVQTLVNSVNSKIPKACCVPTELSAISMLYLDENEKVVLKNYQDMVVEGCGCR
B5: Grem2 K151A/K153A (natural protein)
chain: T1 sequence with A126K, A127K

Key:
SEC = target: the molecule itself; experiment: SEC
Grem2 K111A/K112A = target: B3; experiment: SPR
[1] = target: T1, Grem2 K147A/K148A/K151A/K153A; experiment: SPR
Grem2 K66A/K69A = target: B1; experiment: SPR
[2] = target: T2, Grem2 K66A/K69A/K147A/K148A; experiment: SPR
Grem2 K147A/K148A = target: B2; experiment: SPR
[3] = target: T3, Grem2 K111A/K112A/K151A/K153A; experiment: SPR
Grem2 K151A/K153A = target: B5; experiment: SPR
Gremlin-2 wild type = target: T4, Gremlin-2 wild type; experiment: SPR

Binder: B1
- stoichiometry N (SEC): 2

Binder: B2
- stoichiometry N (SEC): 2

Binder: B3
- stoichiometry N (SEC): 2

Binder: B4
- Kd (Grem2 K111A/K112A): 1.77 nM
- Kd [1]: 4.4 nM
- Kd (Grem2 K66A/K69A): 2.4 nM
- Kd [2]: 5.66 nM
- Kd (Grem2 K147A/K148A): 1.98 nM
- Kd [3]: 2.11 nM
- Kd (Grem2 K151A/K153A): 1.3 nM
- Kd (Gremlin-2 wild type): 1.42 nM

Binder: B5
- stoichiometry N (SEC): 2
